Reference: patent US9744212B2, “Galectin-3C combination therapy for human cancer” (Texas Tech University System, priority 2011, dated 2017)

Tests used:
U266 MM cells = test: Chemotaxis of U266 cells toward SDF-1α in transwell chambers; type: cell-based, human; conditions: Gal-3C at 2.0 μg/ml; SDF-1α 100 ng/ml; 4 hours
Procedure: Chemotaxis of U266 Cells. U266 cells (400×10^3/well) were plated in 100-μl cell culture media with and without Gal-3C (0, 0.4, 2.0, 10, and 20 μg/ml) in the top chambers of 24-well transwell inserts with 8-μm pores. Cell culture media (600 μ ? ) containing the B-cell chemoattractant stromal cell-derived factor (SDF)-1 ? (100 ng/ml; R&D Systems, Minneapolis, Minn., USA) was added to the bottom chamber. After 4 hours, the number of U266 cells in the bottom chamber was counted with a FACScan flow cytometer (flux rate on high, a 2 min acquisition gate, and 200 μs resolution).
FIG. 2 is a graph of Gal-3C inhibits the chemotaxis of U266 MM cells Gal-3C (0.4, 2, 10, or 20 μg/ml) in bicameral chambers in response to stromal cell-derived factor (SDF)-1α (100 ng/ml). Error bars are ±S.D. and sextuplicate data points are represented (ANOVA with Turkey test P<0.001 for all comparisons to controls). […] Gal-3C at 2.0 μg/m1 inhibited more than 60% of the U266 cell chemotaxis stimulated by the chemokine, SDF-1α. The SDF-1α and its receptor, CXCR4, are regulators of the migration and homing of MM cells to the bone marrow, and possibly may also control egression of MM cells out of the bone marrow (76).

HUVEC = HUVEC tubule formation assay on Matrigel with U266 conditioned media; type: cell-based, human; conditions: 20% V/V conditioned medium of U266 treated 48 h with 10 μg/mL Gal-3C, 5 nM Bor or both; 16-hour incubation
Procedure: HUVEC Tubule Formation Assay. A tubule formation assay was performed in vitro as described (86) to measure angiogenesis. Briefly, growth factor-reduced Matrigel (Becton Dickinson) was allowed to polymerize in the presence of 30 ng/mL recombinant basic fibroblastic growth factor (bFGF; R&D Systems) for 1 hour at 37° C.
FIG. 5 is an image of the results from the In vitro tubule formation assay having 6 regions. Serum-starved HUVEC were allowed to form tubules on a […]™ surface in the presence of VEGF (positive control), EMB-2 medium alone (negative control), or EBM-2 supplemented with 20% V/V U266 conditioned media (c.m.). […] To evaluate the effect of different treatments on the ability of U266 cells to induce angiogenesis, a […]™-based tubule formation assay was performed in the presence of U266 conditioned media as described for the chemotaxis assay. Serum-starved (5×103) HUVEC were seeded on the […]™ surface in 200-μL EBM-2 medium supplemented with 20% V/V conditioned medium. Pictures were taken after 16-hour incubation in 5% CO2 at 37° C. The assay was run in triplicate and representative images are depicted in FIG. 5. As a positive control, EBM-2 medium supplemented with 20 ng/mL VEGF was used.

AKT/IKK pathway = test: Western blot of proteins in the NF-κB AKT/IKK pathway; type: cell-based; conditions: U266 and primary human MM cells; Gal-3C 10 μg/ml
Source text: EXAMPLE 4 indicates Gal-3C impairs NF-kB activation induced by Bonin U266 cells. Recently, it has been shown that the mechanism of action of Boris more complex than originally thought and can be differ depending on the cell type. […] This effect potentially reduces the therapeutic effect of Bonin MM, because NF-kB activation in plasma cells is associated with anti-apoptotic pathways (91). […] Comparison of NFkB expression by Western blot. […] Equal amounts of lysates of human primary MM and U266 cells and media were fractionated by SDS-PAGE and transferred to nitrocellulose membranes. Primary antibodies were visualized with HRP-coupled goat anti-rabbit or anti-mouse IgGs using an ATK/IKK kit (Cell Signaling Technology, Danvers, Mass.).
Upon IKK-mediated phosphorylation, IKBα dissociates from the NF-kB complex (p50 and p65 proteins). Free NF-kB is then phosphorylated on serine 529 of the p65 subunit and enters the nucleus where it regulates gene transcription.

[1] = system: NF-kB (serine 529 phosphorylated p65 subunit); test: Quantification of NF-kappaB activation by flow cytometry in U266 cells; type: cell-based, human; conditions: 48 hours
Procedure: Quantification of NF-kappaB Activation by Flow Cytometry. For measurement of NF-kB activation, 200×10^3 cells were fixed with 2% PFA in ice-cold PBS for 30 minutes. After removal of PFA, cells were permeabilized with 0.3% saponin in PBS on ice for 15 minutes, then washed and resuspended in 50 μL PBS supplemented with 1% BSA. PE-labeled anti-phosphorylated serine 529 p65 antibody (BD Biosciences, San Jose, Calif., USA) or isotype control (final dilution, 1:20) and allowed to incubate on ice in the dark for 30 minutes. Before flow-cytometric analysis cells were washed 3 times in 1-mL cold PBS with 1% BSA.
FIG. 8A is a dot-plot of NF-kB activation in U266 cells. After 48 hours in the presence of indicated treatments, the levels of active NF-KB (serine 529 phosphorylated p65 subunit) were evaluated in U266 cells by flow cytometry.

[2] = system: U266 MM subcutaneous tumors; test: U266 subcutaneous tumor model of MM in NOD/SCID mice; type: in vivo, mouse; conditions: for mean difference of tumor volume between Gal-3C and Bor: Gal-3C lower than Bor, P<0.001
Procedure: Testing Gal-3C and Bonin NOD/SCID mouse model of MM: Prior to injection, U266 cells were washed once in Dulbecco's PBS (Sigma-Aldrich), counted, and adjusted to the appropriate density with additional PBS prior to inoculation. PBS containing a suspension of 1×10^7 U266 cells was injected subcutaneously into the abdomen of naive NOD/SCID mice. The primary tumors were measured with a pair of calipers once a week. Tumor volume was calculated by the formula width 2×length×0.5, where width was the smallest dimension. The mice were randomly divided into four groups with five mice in each group after 14 days. Control group #1 was subcutaneously implanted in the abdomen with a PBS-only containing 200-μl mini-osmotic pump. Group #2 received a dose of Gal-3C (30 μg/d/mouse) subcutaneously over a 16-day period for a total of 500 μg via a 200-μl mini-osmotic pump implanted abdominally. Group #3 was treated with six doses of 15 μg Bonin 50-μl injections via the tail vein on days 1-2, 8-9, and 15-16 for a total of 90 μg. Group #4 received Gal-3C via mini-pump for a total dose of 500 μg Gal-3C (30 μg/d/mouse) plus a total 90 μg Bor in 21 days. Anesthetized animals were euthanized and a post-mortem examination was conducted on the whole animals and dissected organs after 35 days.

[3] = system: GFP-expressing HUVECs in U266 tumors; test: Pilot study of in vivo angiogenesis inhibition (GFP-HUVEC plus U266 in Matrigel, nude mice); design: species or system mouse
Procedure: Pilot study of in vivo angiogenesis inhibition by Gal-3C. To determine the ability of Gal-3C to inhibit angiogenesis in vivo, 106 HUVECs infected with GFP-expressing rAAV vectors and 107 U266 MM cells were mixed together and suspended in 300 μL Matrigel. The cell mixture was injected subcutaneously into 6 nude mice and allowed to grow for two weeks. Three days after tumor administration, the mice were divided into two groups and one group was implanted with osmotic mini-pumps and treated with Gal-3C as in the study describe above. After 2 weeks, mice were sacrificed, pictures were taken, and the GFP-expressing cells in tumor masses were analyzed by flow cytometry.
The ability of Gal-3C to inhibit angiogenesis in vivo was determined in a pilot study. Six mice were injected with […] HUVECs and 107 U266 MM cells suspended in Matrigel and divided into two groups after two weeks. One group of 3 mice was implanted with osmotic mini-pumps and treated with Gal-3C as described above.

human breast cancer = conditions: mouse model of human breast cancer, reference (60); cited from earlier work

B1: Gal-3C: N-terminally truncated human galectin-3 consisting of 143 carboxy-terminal amino acid residues, SEQ ID NO: 1 (protein)
chain: GAPAGPLIVPYNLPLPGGVVPRMLITILGTVKPNANRIALDFQRGNDVAFHFNPRFNENNRRVIVCNTKLDNNWGREERQSVFPFESGKPFKIQVLVEPDHFKVAVNDAHLLQYNHRVKKLNEISKLGISGDIDITSASYTMI
U266 MM cells
  inhibition of U266 cell chemotaxis stimulated by SDF-1α: more than 60%
HUVEC
  potential of U266 cells for induction of angiogenesis (tubule formation): almost completely impaired
AKT/IKK pathway
  P-p65, P-Akt, P-IKKβ and P-IKKα (activation of the AKT/IKK pathway): inhibited
[1]
  NF-kB activation (phosphorylated active form): did not have a significant effect
[2]; day 21
  mean difference of tumor volume between Gal-3C and Bor: 4.431±1.494 mm^3
[2]; day 35, Gal-3C 30 μg/d/mouse by mini-osmotic pump, Bor six doses of 15 μg via tail vein
  average tumor volume relative to that of the untreated controls: 13.5%
[2]; day 35
  mean difference of tumor volume between Gal-3C and Bor: 31.54±4.379 mm3
[3]; GFP-expressing HUVEC, FACS, controls 19.24
  mean fluorescence intensity (MFI) of cells from tumor masses: 9.4 MFI
[3]; compared to control mice
  reduction of the number of endothelial cells in the tumors: 48%
[3]; controls 89.3%
  GFP-expressing HUVECs as share of the cells in tumor masses: 46.2%
[3]; image analyses of nude mice
  subcutaneous vascularization near tumors: markedly reduced
[3]; nude mice, control 7 mm
  tumor size (white circles, representative mouse): 3 mm
Human breast cancer
  adverse side effects: no evidence of adverse side effects
  tumor growth and metastasis: inhibited tumor growth and metastasis
